Reference: publication PMC10839789, “More indications for redox-sensitive cysteine residues of the Arabidopsis 5-aminolevulinate dehydratase” (Frontiers in Plant Science, 2023)
Numbering of substitutions follows the chain as printed. In names and notes the source's numbering stands.

B1: recombinant 6xHis-ALAD (Arabidopsis thaliana 5-aminolevulinic acid dehydratase 1, mature, wild type) (enzyme, UniProt Q9SFH9 53-430, looked up)
chain: ASESGNGHAKKLGMSDAECEAAVAAGNVPEAPPVPPKPAAPVGTPIIKPLNLSRRPRRNRASPVTRAAFQETDISPANFVYPLFIHEGEEDTPIGAMPGCYRLGWRHGLVQEVAKARAVGVNSIVLFPKVPEALKNSTGDEAYNDNGLVPRTIRLLKDKYPDLIIYTDVALDPYSSDGHDGIVREDGVIMNDETVHQLCKQAVSQARAGADVVSPSDMMDGRVGAIRSALDAEGFQNVSIMSYTAKYASSFYGPFREALDSNPRFGDKKTYQMNPANYREALIEAREDEAEGADILLVKPGLPYLDIIRLLRDKSPLPIAAYQVSGEYSMIKAGGVLKMIDEEKVMMESLMCLRRAGADIILTYFALQAATCLCGEKR
notes: ALAD1 (HEMB1, AT1G69740), Arabidopsis thaliana, cloned without the transit peptide (aa 1-52, ChloroP); mature ALAD1 is Ala53 to Arg430 of the 430-residue precursor; pET28a(+); also called ALAD1; ALAD(WT); source: E. coli Rosetta (DE3), purified (Ni-NTA agarose); not shown: His6, N-terminal, kept
B2: recombinant 6xHis-ALAD(C424S/C426S) (enzyme, Arabidopsis thaliana, UniProt Q9SFH9 53-430, looked up)
chain: B1 chain with C372S, C374S
notes: ALAD1 (HEMB1, AT1G69740), Arabidopsis thaliana, mature form without the transit peptide (aa 1-52), Ala53 to Arg430; made by site-directed mutagenesis of pET28a(ALAD); also called ALAD(C424/C426); source: E. coli Rosetta (DE3), purified (Ni-NTA agarose); not shown: His6, N-terminal, kept

Key:
[1] = target: the molecule itself; assay: non-reducing SDS-PAGE with immunoblot (disulfide-linked oligomers); ALAD oxidised with diamide, dialysed, then 1 uM ALAD incubated 30 min with diamide, DTT (0.1-10 mM) or 0.1 mM DTT with TRX-f1/TRX-m1 (6.7 uM) or BSA (2 uM); free Cys blocked with NEM; non-reducing 10% SDS-PAGE; anti-His blot
[2] = target: the molecule itself; assay: non-reducing SDS-PAGE with immunoblot (disulfide-linked oligomers); recombinant ALAD preincubated 15 min at RT with 1 mM diamide (oxidising) or untreated; non-reducing 12% SDS-PAGE; anti-His blot

Row | Protein | binding result [1] | binding result [2]
1 | B1 | binds | –
2 | B2 | – | binds
